Data from article PMC2188280 (The Journal of Experimental Medicine, 1987).

B1: CD2, purified, detergent-solubilized (receptor, human (endogenous in Jurkat or SKW3), UniProt P06729 25-351, looked up)
chain: KEITNALETWGALGQDINLDIPSFQMSDDIDDIKWEKTSDKKKIAQFRKEKETFKEKDTYKLFKNGTLKIKHLKTDDQDIYKVSIYDTKGKNVLEKIFDLKIQERVSKPKISWTCINTTLTCEVMNGTDPELNLYQDGKHLKLSQRVITHKWTTSLSAKFKCTAGNKVSKESSVEPVSCPEKGLDIYLIIGICGGGSLLMVFVALLVFYITKRKKQRSRRNDEELETRAHRVATEERGRKPHQIPASTPQNPATSQHPPPPPGHRSQAPSHRPPPPGHRVQHQPQKRPPAPSGTQVHQQKGPPLPRPRVQPKPPHGAAENSLSPSSN
B2: lymphocyte function-associated antigen 3 (LFA-3) on human erythrocytes (ligand, human (endogenous in erythrocytes), UniProt P19256 29-250, looked up)
chain: FSQQIYGVVYGNVTFHVPSNVPLKEVLWKKQKDKVAELENSEFRAFSSFKNRVYLDTVSGSLTIYNLTSSDEDEYEMESPNITDTMKFFLYVLESLPSPTLTCALTNGSIEVQCMIPEHYNSHRGLIMYSWDCPMEQCKRNSTSIYFKMENDLPQKIQCTLSNPLFNTTSSIILTTCIPSSGHSRHRYALIPIPLAVITTCIVLYMNGILKCDRKPDRTNSN

Key:
[1] = molecular target: B2; test: flow cytometry on cells
[2] = molecular target: B1; test: flow cytometry on cells

Binder | IC50 [1] [nM] | Ka [2] [M⁻¹]
B1 | ~30 | 
B2 |  | ~3e+07
